# Results published in paper PMC8318291, “CryoEM structure of the Nipah virus nucleocapsid assembly” (PLoS Pathogens, 2021).
# “And” between values parts separate entries of the source, which are not always exact repeats. Equal values may be shown once.
# Molecular target: the molecule itself
# Assay: cryo-EM structure
protein,measurement,value
"Nipah virus (NiV) nucleocapsid protein (natural protein, also called N protein; nucleoprotein (N)) MSDIFEEAASFRSYQSKLGRDGRASAATATLTTKIRIFVPATNSPELRWELTLFALDVIRSPSAAESMKVGAAFTLISMYSERPGALIRSLLNDPDIEAVIIDVGSMVNGIPVMERRGDKAQEEMEGLMRILKTARDSSKGKTPFVDSRAYGLRITDMSTLVSAVITIEAQIWILIAKAVTAPDTAEESETRRWAKYVQQKRVNPFFALTQQWLTEMRNLLSQSLSVRKFMVEILIEVKKGGSAKGRAVEIISDIGNYVEETGMAGFFATIRFGLETRYPALALNEFQSDLNTIKSLMLLYREIGPRAPYMVLLEESIQTKFAPGGYPLLWSFAMGVATTIDRSMGALNINRGYLEPMYFRLGQKSARHHAGGIDQNMANRLGLSSDQVAELAAAVQETSAGRQESNVQAREAKFAAGGVLIGGSDQDIDEGEEPIEQSGRQSVTFKREMSISSLANSVPSSSVSTSGGTRLTNSLLNLRSRLAAKAAKEAASSNATDDPAISNRTQGESEKKNNQDLKPAQNDLDFVRADV",stoichiometry N,13 subunits and 14 subunits
